Kd data for four molecules are collected here from publication PMC5147862 (PLoS ONE, 2016).

To fix the notation:
B1: RRAS1, mGppNHp-bound (natural protein, human, UniProt P10301 1-218, looked up)
chain: MSSGAASGTGRGRPRGGGPGPGDPPPSETHKLVVVGGGGVGKSALTIQFIQSYFVSDYDPTIEDSYTKICSVDGIPARLDILDTAGQEEFGAMREQYMRAGHGFLLVFAINDRQSFNEVGKLFTQILRVKDRDDFPVVLVGNKADLESQRQVPRSEASAFGASHHVAYFEASAKLRLNVDEAFEQLVRAVRKYQEQELPPSPPSAPRKKGGGCPCVLL
notes: human RRAS1 (R-Ras); Loaded with mGppNHp; That the RAS proteins are the ones made with pGEX is surmised
B2: RRAS2 (or TC21), mGppNHp-bound (natural protein, human, UniProt P62070 1-204, looked up)
chain: MAAAGWRDGSGQEKYRLVVVGGGGVGKSALTIQFIQSYFVTDYDPTIEDSYTKQCVIDDRAARLDILDTAGQEEFGAMREQYMRTGEGFLLVFSVTDRGSFEEIYKFQRQILRVKDRDEFPMILIGNKADLDHQRQVTQEEGQQLARQLKVTYMEASAKIRMNVDQAFHELVRVIRKFQEQECPPSPEPTRKEKDKKGCHCVIF
notes: human RRAS2 (TC21); Loaded with mGppNHp; That the RAS proteins are the ones made with pGEX is surmised; also called RRAS2-mGppNHp

What all share (experiment): fluorescence polarisation; MBP-tagged effector domain (0.05-100 μM) titrated to 1 μM RAS-mGppNHp; 50 mM Tris/HCl pH 7.5, 100 mM NaCl, 5 mM MgCl2, 3 mM dithiothreitol, 25°C; quadratic ligand binding equation
Holding throughout (settings): both partners purified
A general note: In fluorescence polarisation assays a small probe gives low polarisation when free and higher when bound to something large.

The target of assay [1] is T1, RAS binding (RB) domain of PI3Kα, MBP fusion (human, UniProt P42336 169-301).
T1 construct: human PI3Kα, RB domain, aa 169-301; also called PI3Kα-RB
T1 sequence (P42336 169-301): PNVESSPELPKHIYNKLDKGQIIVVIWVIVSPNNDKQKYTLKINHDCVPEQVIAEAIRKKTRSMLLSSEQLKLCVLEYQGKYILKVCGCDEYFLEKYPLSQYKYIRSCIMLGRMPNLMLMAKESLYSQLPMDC

The target in assay [2] is B2.
For the assay “RRAS1, mGppNHp-bound”, the target named is B1.
For the next assay, the target named is T2, HRAS, mGppNHp-bound (human, UniProt P01112 1-189).
T2 construct: human HRAS; Loaded with the fluorescent non-hydrolysable GTP analog mant-GppNHp (mGppNHp); That the RAS proteins are the ones made with pGEX is surmised

The next assay concerns the target T3, NRAS, mGppNHp-bound (human, UniProt P01111 1-189).
T3 construct: human NRAS; Loaded with mGppNHp; That the RAS proteins are the ones made with pGEX is surmised

T3 sequence (P01111 whole entry): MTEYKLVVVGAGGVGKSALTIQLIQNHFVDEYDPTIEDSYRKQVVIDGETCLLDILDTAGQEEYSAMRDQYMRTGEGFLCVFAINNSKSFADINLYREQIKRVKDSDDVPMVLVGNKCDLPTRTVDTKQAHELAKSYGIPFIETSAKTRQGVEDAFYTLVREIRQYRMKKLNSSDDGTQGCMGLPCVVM

Take B1: the Kd (commonly the free concentration of one partner at which half of the binding sites on the other are occupied at equilibrium, for simple one-to-one binding) in assay [1] was found to be 11 µM.

In turn, B2 gave a Kd in assay [1] of 18.1 µM.

B3: RAS association (RA) domain of RASSF5, MBP fusion (domain or fragment, human, UniProt Q8WWW0 200-358, looked up)
chain: EETQRPPTLQEIKQKIDSYNTREKNCLGMKLSEDGTYTGFIKVHLKLRRPVTVPAGIRPQSIYDAIKEVNLAATTDKRTSFYLPLDAIKQLHISSTTTVSEVIQGLLKKFMVVDNPQKFALFKRIHKDGQVLFQKLSIADRPLYLRLLAGPDTEVLSFV
notes: human RASSF5, RA domain, aa 200-358; also called RASSF5-RA
B3: the Kd came to 10 µM in assay [2]; 11.5 µM with RRAS1, mGppNHp-bound; 0.238 µM with HRAS, mGppNHp-bound; 0.442 µM with NRAS, mGppNHp-bound.

B4: RAS association (RA) domain of PLCε, MBP fusion (domain or fragment, human, UniProt Q9P212 2130-2240, looked up)
chain: LSSEEESFFVQVHDVSPEQPRTVIKAPRVSTAQDVIQQTLCKAKYSYSILSNPNPSDYVLLEEVVKDTTNKKTTTPKSSQRVLLDQECVFQAQSKWKGAGKFILKLKEQVQ
notes: human PLCε, RA domain (RA2), aa 2130-2240; also called PLCε-RA2
Turning to B4, the Kd in assay [2] came to 145 µM; with RRAS1, mGppNHp-bound, 114 µM.
